Measured values as given in patent publication US20260167699A1 (Chugai, published 2026).
Changes are numbered by the printed parent chain.

T1: FcγRIIb (human, UniProt P31994 43-217)
T1 construct: extracellular domain; also called 2b
T1 sequence: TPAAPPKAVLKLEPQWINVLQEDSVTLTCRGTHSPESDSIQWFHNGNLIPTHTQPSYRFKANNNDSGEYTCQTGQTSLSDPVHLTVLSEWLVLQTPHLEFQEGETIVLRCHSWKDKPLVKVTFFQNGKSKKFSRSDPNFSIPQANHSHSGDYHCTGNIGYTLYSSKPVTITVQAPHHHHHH

T2: FcγRIIa(H) (human, UniProt P12318 34-217)
T2 construct: extracellular domain; also called FcγRIIa H type; 2aH
T2 sequence: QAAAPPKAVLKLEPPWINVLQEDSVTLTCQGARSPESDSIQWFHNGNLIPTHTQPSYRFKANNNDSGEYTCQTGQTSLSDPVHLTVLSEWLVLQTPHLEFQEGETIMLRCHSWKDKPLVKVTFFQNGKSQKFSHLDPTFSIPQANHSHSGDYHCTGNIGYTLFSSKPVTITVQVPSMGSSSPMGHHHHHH

T3: FcγRIIa(R) (human, UniProt P12318 34-217)
T3 construct: extracellular domain; also called FcγRIIa R type; 2aR
T3 sequence: T2 sequence with H134R

B1: GpH7-A5/GpH7-B3 variant L234_13S/GpL16-k0 (antibody, human IgG1, kappa)
heavy 1: not shown
heavy 2: not shown
light: DIVMTQSPLSLPVTPGEPASISCQASESLVHSNRNTYLHWYLQKPGQSPQLLIYKVSNRFSGVPDRFSGSGSGTDFTLKISRVEAEDVGVYYCSQNTHVPPTFGQGTKVEIERTVAAPSVFIFPPSDEQLKSGTASVVCLLNNFYPREAKVQWKVDNALQSGNSQESVTEQDSKDSTYSLSSTLTLSKADYEKHKVYACEVTHQGLSSPVTKSFNRGEC
notes: heterodimerized IgG1, one H chain mutated; also called He Ab
B2: GpH7-A5/GpH7-B3 variant P238_10E/GpL16-k0 (antibody, human IgG1, kappa)
heavy 1: not shown
heavy 2: not shown
light: B1 light
notes: as for B1
B3: GpH7-A5/GpH7-B3 variant L234_15Y/GpL16-k0 (antibody, human IgG1, kappa)
heavy 1: not shown
heavy 2: not shown
light: B1 light
notes: as for B1
B4: GpH7-A5/GpH7-B3 variant L234_14T/GpL16-k0 (antibody, human IgG1, kappa)
heavy 1: not shown
heavy 2: not shown
light: B1 light
notes: as for B1
B5: GpH7-A5/GpH7-B3 variant L235_04F/GpL16-k0 (antibody, human IgG1, kappa)
heavy 1: not shown
heavy 2: not shown
light: B1 light
notes: as for B1
B6: GpH7-A5/GpH7-B3 variant L235_18N/GpL16-k0 (antibody, human IgG1, kappa)
heavy 1: not shown
heavy 2: not shown
light: B1 light
notes: as for B1
B7: GpH7-A5/GpH7-B3 variant L235_16H/GpL16-k0 (antibody, human IgG1, kappa)
heavy 1: not shown
heavy 2: not shown
light: B1 light
notes: as for B1
B8: GpH7-A5/GpH7-B3 variant P238_09D/GpL16-k0 (antibody, human IgG1, kappa)
heavy 1: not shown
heavy 2: not shown
light: B1 light
notes: as for B1
B9: GpH7-A5/GpH7-B3 variant L234_19Q/GpL16-k0 (antibody, human IgG1, kappa)
heavy 1: not shown
heavy 2: not shown
light: B1 light
notes: as for B1
B10: GpH7-A5/GpH7-B3 variant P238_19Q/GpL16-k0 (antibody, human IgG1, kappa)
heavy 1: not shown
heavy 2: not shown
light: B1 light
notes: as for B1
B11: GpH7-A5/GpH7-B3 variant L235_06M/GpL16-k0 (antibody, human IgG1, kappa)
heavy 1: not shown
heavy 2: not shown
light: B1 light
notes: as for B1
B12: GpH7-A5/GpH7-B3 variant P271_04F/GpL16-k0 (antibody, human IgG1, kappa)
heavy 1: not shown
heavy 2: not shown
light: B1 light
notes: as for B1
B13: GpH7-A5/GpH7-B3 variant P271_14T/GpL16-k0 (antibody, human IgG1, kappa)
heavy 1: not shown
heavy 2: not shown
light: B1 light
notes: as for B1
B14: GpH7-A5/GpH7-B3 variant L235_03V/GpL16-k0 (antibody, human IgG1, kappa)
heavy 1: not shown
heavy 2: not shown
light: B1 light
notes: as for B1
B15: GpH7-A5/GpH7-B3 variant L235_09D/GpL16-k0 (antibody, human IgG1, kappa)
heavy 1: not shown
heavy 2: not shown
light: B1 light
notes: as for B1
B16: GpH7-A5/GpH7-B3 variant P238_15Y/GpL16-k0 (antibody, human IgG1, kappa)
heavy 1: not shown
heavy 2: not shown
light: B1 light
notes: as for B1
B17: GpH7-A5/GpH7-B3 variant L235_05P/GpL16-k0 (antibody, human IgG1, kappa)
heavy 1: not shown
heavy 2: not shown
light: B1 light
notes: as for B1
B18: GpH7-A5/GpH7-B3 variant L235_20W/GpL16-k0 (antibody, human IgG1, kappa)
heavy 1: not shown
heavy 2: not shown
light: B1 light
notes: as for B1
B19: GpH7-A5/GpH7-B3 variant L235_02A/GpL16-k0 (antibody, human IgG1, kappa)
heavy 1: not shown
heavy 2: not shown
light: B1 light
notes: as for B1
B20: GpH7-A5/GpH7-B3 variant L234_20W/GpL16-k0 (antibody, human IgG1, kappa)
heavy 1: not shown
heavy 2: not shown
light: B1 light
notes: as for B1
B21: GpH7-A5/GpH7-B3 variant P271_15Y/GpL16-k0 (antibody, human IgG1, kappa)
heavy 1: not shown
heavy 2: not shown
light: B1 light
notes: as for B1
B22: GpH7-A5/GpH7-B3 variant L234_18N/GpL16-k0 (antibody, human IgG1, kappa)
heavy 1: not shown
heavy 2: not shown
light: B1 light
notes: as for B1
B23: GpH7-A5/GpH7-B3 variant L234_16H/GpL16-k0 (antibody, human IgG1, kappa)
heavy 1: not shown
heavy 2: not shown
light: B1 light
notes: as for B1
B24: GpH7-A5/GpH7-B3 variant L235_13S/GpL16-k0 (antibody, human IgG1, kappa)
heavy 1: not shown
heavy 2: not shown
light: B1 light
notes: as for B1
B25: GpH7-A5/GpH7-B3 variant L235_14T/GpL16-k0 (antibody, human IgG1, kappa)
heavy 1: not shown
heavy 2: not shown
light: B1 light
notes: as for B1
B26: GpH7-A5/GpH7-B3 variant L235_10E/GpL16-k0 (antibody, human IgG1, kappa)
heavy 1: not shown
heavy 2: not shown
light: B1 light
notes: as for B1
B27: GpH7-A5/GpH7-B3 variant L235_07I/GpL16-k0 (antibody, human IgG1, kappa)
heavy 1: not shown
heavy 2: not shown
light: B1 light
notes: as for B1
B28: GpH7-A5/GpH7-B3 variant L235_15Y/GpL16-k0 (antibody, human IgG1, kappa)
heavy 1: not shown
heavy 2: not shown
light: B1 light
notes: as for B1
B29: GpH7-A5/GpH7-B3 variant P238_08L/GpL16-k0 (antibody, human IgG1, kappa)
heavy 1: not shown
heavy 2: not shown
light: B1 light
notes: as for B1

What follows are binders tested against T1, FcγRIIb (assay: SPR (Biacore), binding relative to GpH7-A5/GpH7-B3/GpL16-k0 x100;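 note: surface plasmon resonance at 25 °C, antibody captured on a sensor chip and soluble FcγR flowed over it in HBS-EP+ running buffer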).
Procedure: (§1) The antibody of interest was analyzed for its interaction with FcγR using a BiaCore™ T100, BiaCore™ A100, or BiaCore™ 4000 surface plasmon resonance system (GE Healthcare Japan Corp.). The running buffer used was HBS-EP+ (GE Healthcare Japan Corp.). The assay temperature was set to 25° C. The sensor chips used were: a chip prepared by immobilizing antigenic peptides onto Series S Sensor Chip CM5 (GE Healthcare Japan Corp.) by the amine coupling method; a chip prepared by immobilizing antigenic peptides biotinylated in advance onto Series S Sensor Chip SA (certified) (GE Healthcare Japan Corp.) through their interaction; a chip prepared by immobilizing protein L (ACTIGEN, BioVision, Inc.) onto Series S Sensor Chip CM5 (GE Healthcare Japan Corp.); and a chip prepared by immobilizing protein A/G (Thermo Fisher Scientific K.K.) onto Series S Sensor Chip CM5 (GE Healthcare Japan Corp.). The antibody of interest was captured onto any of these chips and allowed to interact with FcγR diluted with a running buffer. The antibody captured on the chip was washed off through the reaction of 10 mM glycine-HCl (pH 1.5) to regenerate the chip, which was repetitively used.

He/Con 2b	Binder
67.7%	B1
235%	B2
110%	B3
71.4%	B4
135%	B5
62.7%	B6
87.8%	B7
224%	B8
68.9%	B9
112%	B10
92.4%	B11
66.7%	B12
107%	B13
75.8%	B14
121%	B15
221%	B16
62.4%	B17
168%	B18
72%	B19
131%	B20
58.6%	B21
92%	B22
67.8%	B23
55%	B24
53.4%	B25
90.8%	B26
100%	B27
170%	B28
207%	B29

Each binder was assayed against T2, FcγRIIa(H) in the same assay as above.
Procedure: as §1

He/Con 2aH	Binder
89.4%	B1
74.6%	B2
134%	B3
86.8%	B4
123%	B5
73.5%	B6
99.8%	B7
84.7%	B8
88.1%	B9
54.5%	B10
96.3%	B11
77.1%	B12
69.8%	B13
94.9%	B14
84.3%	B15
57.8%	B16
64.2%	B17
131%	B18
77.6%	B19
126%	B20
74%	B21
100%	B22
97.1%	B23
73.5%	B24
79.5%	B25
80%	B26
99.5%	B27
135%	B28
81.8%	B29

What follows are binders tested against T3, FcγRIIa(R) in the same assay as above.
Procedure: as §1

He/Con 2aR	Binder
82.6%	B1
142%	B2
113%	B3
90%	B4
132%	B5
77.3%	B6
110%	B7
140%	B8
87.2%	B9
97.8%	B10
106%	B11
75.2%	B12
94.7%	B13
83.4%	B14
117%	B15
147%	B16
74.6%	B17
152%	B18
86.6%	B19
125%	B20
70%	B21
98%	B22
83.5%	B23
75.9%	B24
70.6%	B25
98.7%	B26
102%	B27
150%	B28
132%	B29

The binders below were run against T4, FcγRIa (human, UniProt P12314 16-292) in the same assay as above.
T4 construct: extracellular domain; also called 1a
T4 sequence (P12314 other isoform, or with tags, fused parts or gaps): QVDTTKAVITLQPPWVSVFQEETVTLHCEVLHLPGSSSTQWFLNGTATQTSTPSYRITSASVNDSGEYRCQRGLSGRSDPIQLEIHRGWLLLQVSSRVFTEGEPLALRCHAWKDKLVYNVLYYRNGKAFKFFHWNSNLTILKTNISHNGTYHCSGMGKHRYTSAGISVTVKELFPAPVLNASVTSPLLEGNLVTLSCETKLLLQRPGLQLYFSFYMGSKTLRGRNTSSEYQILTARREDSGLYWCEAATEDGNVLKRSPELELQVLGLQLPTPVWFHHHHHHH
Procedure: as §1

He/Con 1a	Binder
100%	B1
105%	B2
103%	B3
102%	B4
100%	B5
95.2%	B6
92.7%	B7
99%	B8
98.8%	B9
101%	B10
101%	B11
100%	B12
101%	B13
97.8%	B14
87.6%	B15
104%	B16
97.8%	B17
95.9%	B18
95.2%	B19
102%	B20
101%	B21
97.3%	B22
97%	B23
93.5%	B24
91.6%	B25
96.9%	B26
103%	B27
100%	B28
104%	B29
